Results as given in the supplement of paper PMC10567573.

B1: PKD2L1 (parent)
chain: YSGGGYYLDLPGSRQGSAEALRAL
B2: CDC25B (parent)
chain: FVDILESDLKDDDAVPPGMESLIS

Variants of: B1
Assay: protein stability index of a GFP-peptide fusion (GPS, HEK-293T) (PSI 1-6); higher = more stable
Conditions: c terminus: a fixed tail appended
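Also: lentivirally expressed fusions sorted by FACS into six bins by GFP to DsRed ratio, PSI derived from sequencing read proportions per bin multiplied by bin number.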

Variant	protein stability index
YSHGGYYLDLPGSRQGSAEALRAL	2.02
YSVGGYYLDLPGSRQGSAEALRAL	2.21
YSTGGYYLDLPGSRQGSAEALRAL	1.93
YSCGGYYLDLPGSRQGSAEALRAL	2.41
YSKGGYYLDLPGSRQGSAEALRAL	2.37
YSFGGYYLDLPGSRQGSAEALRAL	1.45
YSAGGYYLDLPGSRQGSAEALRAL	1.58
YSEGGYYLDLPGSRQGSAEALRAL	2.06
YSIGGYYLDLPGSRQGSAEALRAL	2.27
YSSGGYYLDLPGSRQGSAEALRAL	1.73
YSLGGYYLDLPGSRQGSAEALRAL	2.87
YSRGGYYLDLPGSRQGSAEALRAL	2.47
YSPGGYYLDLPGSRQGSAEALRAL	2.31
YSYGGYYLDLPGSRQGSAEALRAL	1.7
YSMGGYYLDLPGSRQGSAEALRAL	2.12
YSNGGYYLDLPGSRQGSAEALRAL	1.52
YSWGGYYLDLPGSRQGSAEALRAL	2.09
YSQGGYYLDLPGSRQGSAEALRAL	1.52
YSDGGYYLDLPGSRQGSAEALRAL	2.5
YPGGGYYLDLPGSRQGSAEALRAL	3.27
YQGGGYYLDLPGSRQGSAEALRAL	2.3
YKGGGYYLDLPGSRQGSAEALRAL	2.22

Variant	protein stability index
YTGGGYYLDLPGSRQGSAEALRAL	2.59
YLGGGYYLDLPGSRQGSAEALRAL	1.4
YWGGGYYLDLPGSRQGSAEALRAL	2.13
YVGGGYYLDLPGSRQGSAEALRAL	3.97
YGGGGYYLDLPGSRQGSAEALRAL	1.45
YEGGGYYLDLPGSRQGSAEALRAL	3
YNGGGYYLDLPGSRQGSAEALRAL	1.84
YFGGGYYLDLPGSRQGSAEALRAL	1.93
YYGGGYYLDLPGSRQGSAEALRAL	2.19
YIGGGYYLDLPGSRQGSAEALRAL	2.34
YMGGGYYLDLPGSRQGSAEALRAL	1.92
YDGGGYYLDLPGSRQGSAEALRAL	2.45
YRGGGYYLDLPGSRQGSAEALRAL	2.51
YHGGGYYLDLPGSRQGSAEALRAL	2.88
YSGYGYYLDLPGSRQGSAEALRAL	1.65
YSGNGYYLDLPGSRQGSAEALRAL	1.67
YSGQGYYLDLPGSRQGSAEALRAL	2.23
YSGPGYYLDLPGSRQGSAEALRAL	2.03
YSGWGYYLDLPGSRQGSAEALRAL	2.44
YSGTGYYLDLPGSRQGSAEALRAL	2.53
YSGMGYYLDLPGSRQGSAEALRAL	2.35
YSGDGYYLDLPGSRQGSAEALRAL	2.86

Variant	protein stability index
YSGFGYYLDLPGSRQGSAEALRAL	2.49
YSGSGYYLDLPGSRQGSAEALRAL	2.08
YSGLGYYLDLPGSRQGSAEALRAL	2.15
YSGAGYYLDLPGSRQGSAEALRAL	1.56
YSGRGYYLDLPGSRQGSAEALRAL	2.48
YSGCGYYLDLPGSRQGSAEALRAL	1.95
YSGKGYYLDLPGSRQGSAEALRAL	2.37
YSGHGYYLDLPGSRQGSAEALRAL	2.45
YSGVGYYLDLPGSRQGSAEALRAL	2.22
YSGEGYYLDLPGSRQGSAEALRAL	1.8
YSGIGYYLDLPGSRQGSAEALRAL	1.78
YSGGGMYLDLPGSRQGSAEALRAL	2.16
YSGGGNYLDLPGSRQGSAEALRAL	2.83
YSGGGFYLDLPGSRQGSAEALRAL	2.25
YSGGGAYLDLPGSRQGSAEALRAL	2.27
YSGGGLYLDLPGSRQGSAEALRAL	1.59
YSGGGPYLDLPGSRQGSAEALRAL	2.42
YSGGGHYLDLPGSRQGSAEALRAL	2.16
YSGGGEYLDLPGSRQGSAEALRAL	3.37
YSGGGKYLDLPGSRQGSAEALRAL	2.66
YSGGGDYLDLPGSRQGSAEALRAL	2.57
YSGGGCYLDLPGSRQGSAEALRAL	2.75

Variant	protein stability index
YSGGGRYLDLPGSRQGSAEALRAL	2.64
YSGGGIYLDLPGSRQGSAEALRAL	1.79
YSGGGQYLDLPGSRQGSAEALRAL	2.83
YSGGGGYLDLPGSRQGSAEALRAL	1.84
YSGGHYYLDLPGSRQGSAEALRAL	2.28
YSGGVYYLDLPGSRQGSAEALRAL	2.1
YSGGLYYLDLPGSRQGSAEALRAL	1.6
YSGGCYYLDLPGSRQGSAEALRAL	1.25
YSGGRYYLDLPGSRQGSAEALRAL	2.67
YSGGKYYLDLPGSRQGSAEALRAL	2.65
YSGGYYYLDLPGSRQGSAEALRAL	1.71
YSGGTYYLDLPGSRQGSAEALRAL	1.96
YSGGEYYLDLPGSRQGSAEALRAL	2.06
YSGGDYYLDLPGSRQGSAEALRAL	2.28
YSGGNYYLDLPGSRQGSAEALRAL	1.76
YSGGAYYLDLPGSRQGSAEALRAL	1.14
YSGGPYYLDLPGSRQGSAEALRAL	2.41
YSGGFYYLDLPGSRQGSAEALRAL	2.17
YSGGSYYLDLPGSRQGSAEALRAL	1.83
YSGGMYYLDLPGSRQGSAEALRAL	2.68
YSGGQYYLDLPGSRQGSAEALRAL	1.39
YSGGIYYLDLPGSRQGSAEALRAL	1.33

Variant	protein stability index
YSGGWYYLDLPGSRQGSAEALRAL	3.35
TSGGGYYLDLPGSRQGSAEALRAL	3.58
GSGGGYYLDLPGSRQGSAEALRAL	3.66
CSGGGYYLDLPGSRQGSAEALRAL	2.29
LSGGGYYLDLPGSRQGSAEALRAL	3.1
KSGGGYYLDLPGSRQGSAEALRAL	3.16
PSGGGYYLDLPGSRQGSAEALRAL	3.49
HSGGGYYLDLPGSRQGSAEALRAL	3.5
MSGGGYYLDLPGSRQGSAEALRAL	2.99
DSGGGYYLDLPGSRQGSAEALRAL	4.08
ASGGGYYLDLPGSRQGSAEALRAL	3.15
VSGGGYYLDLPGSRQGSAEALRAL	2.98
WSGGGYYLDLPGSRQGSAEALRAL	2.94
ESGGGYYLDLPGSRQGSAEALRAL	3.75
RSGGGYYLDLPGSRQGSAEALRAL	3.13
FSGGGYYLDLPGSRQGSAEALRAL	2.68
NSGGGYYLDLPGSRQGSAEALRAL	3.58
ISGGGYYLDLPGSRQGSAEALRAL	2.72
QSGGGYYLDLPGSRQGSAEALRAL	3.75
SSGGGYYLDLPGSRQGSAEALRAL	3.48

Variants of: B2
Assay: as above
Conditions: c terminus: a fixed tail appended

Variant	protein stability index
FVDILESDLKDDDAVPPGMESSIS	3.66
FVDILESDLKDDDAVPPGMESIIS	2.77
FVDILESDLKDDDAVPPGMESWIS	2.43
FVDILESDLKDDDAVPPGMESEIS	3.92
FVDILESDLKDDDAVPPGMESGIS	3.21
FVDILESDLKDDDAVPPGMESHIS	3.52
FVDILESDLKDDDAVPPGMESKIS	2.99
FVDILESDLKDDDAVPPGMESPIS	3.36
FVDILESDLKDDDAVPPGMESCIS	3.15
FVDILESDLKDDDAVPPGMESVIS	3.19
FVDILESDLKDDDAVPPGMESMIS	3.1
FVDILESDLKDDDAVPPGMESNIS	2.71
FVDILESDLKDDDAVPPGMESQIS	3.32
FVDILESDLKDDDAVPPGMESDIS	3.67
FVDILESDLKDDDAVPPGMESFIS	2.63
FVDILESDLKDDDAVPPGMESRIS	2.66
FVDILESDLKDDDAVPPGMESYIS	2.47
FVDILESDLKDDDAVPPGMESAIS	3.37
FVDILESDLKDDDAVPPGMESTIS	3.65
FVDILESDLKDDDAVPPGMVSLIS	2.66
FVDILESDLKDDDAVPPGMYSLIS	2.12
FVDILESDLKDDDAVPPGMWSLIS	1.78
FVDILESDLKDDDAVPPGMTSLIS	2.51
FVDILESDLKDDDAVPPGMESLIR	2.96
FVDILESDLKDDDAVPPGMESLIN	2.85
FVDILESDLKDDDAVPPGMESLIA	3.1
FVDILESDLKDDDAVPPGMESLIC	2.66

Variant	protein stability index
FVDILESDLKDDDAVPPGMESLIQ	3.9
FVDILESDLKDDDAVPPGMESLIW	1.72
FVDILESDLKDDDAVPPGMESLIY	2.47
FVDILESDLKDDDAVPPGMESLIF	2.01
FVDILESDLKDDDAVPPGMESLIE	3.27
FVDILESDLKDDDAVPPGMESLIT	3.02
FVDILESDLKDDDAVPPGMESLID	3.45
FVDILESDLKDDDAVPPGMESLIK	2.82
FVDILESDLKDDDAVPPGMESLIL	2.18
FVDILESDLKDDDAVPPGMESLIV	2.41
FVDILESDLKDDDAVPPGMESLIP	2.57
FVDILESDLKDDDAVPPGMESLIH	2.94
FVDILESDLKDDDAVPPGMESLIG	3.02
FVDILESDLKDDDAVPPGMESLIM	2.52
FVDILESDLKDDDAVPPGMESLII	2.69
FVDILESDLKDDDAVPPGMESLQS	3.77
FVDILESDLKDDDAVPPGMESLLS	3.07
FVDILESDLKDDDAVPPGMESLSS	3.3
FVDILESDLKDDDAVPPGMESLGS	3.03
FVDILESDLKDDDAVPPGMESLHS	3.56
FVDILESDLKDDDAVPPGMESLTS	2.91
FVDILESDLKDDDAVPPGMESLDS	3.7
FVDILESDLKDDDAVPPGMESLVS	2.65
FVDILESDLKDDDAVPPGMESLWS	2.25
FVDILESDLKDDDAVPPGMESLCS	2.93
FVDILESDLKDDDAVPPGMESLFS	2.48
FVDILESDLKDDDAVPPGMESLNS	2.6

Variant	protein stability index
FVDILESDLKDDDAVPPGMESLRS	2.77
FVDILESDLKDDDAVPPGMESLKS	2.83
FVDILESDLKDDDAVPPGMESLMS	3.02
FVDILESDLKDDDAVPPGMESLES	3.57
FVDILESDLKDDDAVPPGMESLYS	2.69
FVDILESDLKDDDAVPPGMESLAS	3.54
FVDILESDLKDDDAVPPGMESLPS	2.96
FVDILESDLKDDDAVPPGMEWLIS	2.22
FVDILESDLKDDDAVPPGMEDLIS	3.15
FVDILESDLKDDDAVPPGMEQLIS	2.83
FVDILESDLKDDDAVPPGMEALIS	2.84
FVDILESDLKDDDAVPPGMEYLIS	2.35
FVDILESDLKDDDAVPPGMENLIS	2.81
FVDILESDLKDDDAVPPGMEMLIS	2.96
FVDILESDLKDDDAVPPGMECLIS	2.93
FVDILESDLKDDDAVPPGMELLIS	3.43
FVDILESDLKDDDAVPPGMEKLIS	2.68
FVDILESDLKDDDAVPPGMETLIS	2.76
FVDILESDLKDDDAVPPGMEFLIS	2.5
FVDILESDLKDDDAVPPGMERLIS	2.86
FVDILESDLKDDDAVPPGMEPLIS	3.02
FVDILESDLKDDDAVPPGMEVLIS	2.93
FVDILESDLKDDDAVPPGMEILIS	3.24
FVDILESDLKDDDAVPPGMEGLIS	2.61
FVDILESDLKDDDAVPPGMEELIS	3.05
FVDILESDLKDDDAVPPGMEHLIS	2.67
